Consider 21 sequences from the supplement of paper PMC9170038.

This series concerns MS2 coat protein. Description: apparent KD of MS2 coat protein; designed switch direction (-1 OFF switch, 1 ON switch): 1; higher = weaker reporter binding. The method, boiled down:
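SNAP-549-labelled MS2 coat protein was titrated, doubling from 0.7 or 1.5 nM to 3 µM, over designed RNA switches transcribed on Illumina chips by stalled E. coli RNA polymerase. Runs were done without input, with 200 uM small-molecule ligand, or with an oligonucleotide input. Apparent KD is the per-design median over clusters of curve-fitted normalised fluorescence.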

Where [1] appears, read: Eterna round: R95, input ligand: FMN 200 uM.
Setting [2] is: Eterna round: R95, input ligand: microRNA oligo, concentration not stated.
Setting [3] is: Eterna round: R95, input ligand: none.
[4] abbreviates: input ligand: microRNA oligo, concentration not stated.

Turning to “CUCCCACGUGCACAGGAUAUGCCGGGAUGCACAUGAGGAUCACCCAUGUAAUCCUGAAAAUAAAAGCAGAAGGGUGAUCAUGGGU [Teestege] (puzzle: Same State 2)”, the “apparent KD of MS2 coat protein” value by setting is: under setting [1], 36.1 nM; under setting [2], 11.6 nM; under setting [3], 10.2 nM.
On to “CUGAAAUGUCAAGGAUAUCACGUCGAUUAGACGUGAGAAGGUGAUCUGCACAUGAGGAUCACCCAUGUGUUACAUGGGAGUCAG [Brourd's SSNG1/1-A2 mod 16] (Eterna round: R96, puzzle: Same State NG 1)”, for which the “apparent KD of MS2 coat protein” value (input ligand: FMN 200 uM) came out at 600 nM, the “apparent KD of MS2 coat protein” value under setting [4] stood at 324 nM and the “apparent KD of MS2 coat protein” value (input ligand: none) is 891 nM.
“CUGAGCAAGCAAGGAUAUCACGUCGAUUAGACGUGAGAAGGUGCUCCUUACAUGAGGAUCACCCAUGUAUAACAUGAAGCUCAG [SSNG1/10-A2] (Eterna round: R96, puzzle: Same State NG 1)”: the “apparent KD of MS2 coat protein” value is 190 nM (input ligand: FMN 200 uM), 902 nM under setting [4] and 1090 nM (input ligand: none).
Consider “CUGAGCAGUCAAGGAUAUCACGUCGAAUAGACGUGAGAAGGUGACCAAUACAUGAGGAUCACCCAUGUAAUACAUGAAGCUCAG [SSNG1/12-A1] (Eterna round: R96, puzzle: Same State NG 1)”, for which the “apparent KD of MS2 coat protein” value under setting [4] came out at 26 nM.
Turning to “CUGAGCAGUCAAGGAUAUCACGUCGUUUAGACGUGAGAAGGUGACCAAUACAUGAGGAUCACCCAUGUAAUACAUGAAGCUCAG [SSNG1/12-A3] (Eterna round: R96, puzzle: Same State NG 1)”, the “apparent KD of MS2 coat protein” value runs as follows: (input ligand: FMN 200 uM) 16.2 nM; under setting [4], 17.8 nM; (input ligand: none) 37.2 nM.
Taken in the same sequence, the figures for “CUGAGCGAUCAAGGAUAUCACGUCGUUUAGACGUGAGAAGGUGAUCAUAACAUGAGGAUCACCCAUGUAUUACAUGAAGCUCAG [SSNG1/2-A3] (Eterna round: R96, puzzle: Same State NG 1)” were 208 nM, 462 nM and 1240 nM.
Taken in the same sequence, the figures for “CUGAGCGAUUAAGGAUAUCACGUCGAAUAGACGUGAGAAGGUGAUCAUAACAUGAGGAUCACCCAUGUAUUACAUGAAGCUCAG [SSNG1/3-A1] (Eterna round: R96, puzzle: Same State NG 1)” were 305 nM, 100 nM and 108 nM.
For the sequence “CUGCUACAUGAGGAUCACCCAUGUUGGAGUGAUGCAGGAUAUGUGGGACCAGAAGAUGAAACAGAAGGGCAAGGAG [JR_SS!_Sub006] (puzzle: Same State 1)”, the “apparent KD of MS2 coat protein” value reads like this: under setting [1], 110 nM; under setting [2], 95.7 nM; under setting [3], 152 nM.
The like results for “CUGUCUACAGGUGUCUUUGCUCGUUUUAUACAUGAGGAUCACCCAUGUUAUAGCCCGGUGCUUGCGCUGGGCUGAUU [JL ViennaUCT Tearor mod 8] (puzzle: Sensor for hsa-mir-208a)” were, in that order, 66.8 nM, 14.1 nM and 63 nM.
Consider “CUUAUUAAUGCAGGAUAUGAUUAACAUGAGGAUCACCCAUGUGGUGUUGUGAGUAAGGAGAGUGAUCAGAAGGGCAUUUUUUUU [JMF's solution 41] (Eterna round: R96, puzzle: Same State NG 2)”, for which the “apparent KD of MS2 coat protein” value runs as follows: (input ligand: FMN 200 uM) 711 nM; under setting [4], 410 nM; (input ligand: none) 656 nM.
On to “CUUUAUCACUAUACAUGAGGAUCACCCAUGUUAUCAUCAUGAGAGGAUAUCGUAUUUGGAUUUUUCGAGAAGGCUCUAUUGUAU [JR_SSNG3_Sub077] (Eterna round: R96, puzzle: Same State NG 3)”, for which the “apparent KD of MS2 coat protein” value under setting [4] was 158 nM.
“CUUUCUCUUGCAGGAUAUCCUAGUCUUCGGUUAGGAGAAGGGCAAGGAAAUUUGCUAAGCAAGUCUGUAACAGAGAUCCUCCUC [pwkr ssNG1 F9.1] (Eterna round: R96, puzzle: Same State NG 1)”: the “apparent KD of MS2 coat protein” value is 30.8 nM (input ligand: FMN 200 uM), 313 nM under setting [4] and 37.9 nM (input ligand: none).
Take “GAAAAACAUGAGGAUCACCCAUGUAAAAAAAUGGGAGGAUAUACAAAGACGAAAGUCAAAGUAGAAGGCCUGAAAG [same state 2] (Eterna round: R96, puzzle: Same State 1)”: the “apparent KD of MS2 coat protein” value under setting [4] came out at 42.7 nM.
As to “GAAUAAAUGAUAGGAUAUACAUGAGGAAUUCUCGUAGAAGGAUCAUGACAUGAGGAUCACCCAUGUAACGCUCGAAAGAGCGUA [Mat - Same State NG 1 - JL mod - D41] (Eterna round: R96, puzzle: Same State NG 1)”, the “apparent KD of MS2 coat protein” value is 607 nM (input ligand: FMN 200 uM), 733 nM under setting [4] and 928 nM (input ligand: none).
Take “GACAAUCUAUCUCAGGAUAUCAUGUCAAAGACAUGAGGAUCACCCAUGUACCAGGAAACUGGUUAUGAGAAGGGAGAUAGAUUGA [Mat - Same State 2 - Mod - D26] (puzzle: Same State 2)”: the “apparent KD of MS2 coat protein” value reads like this: under setting [1], 264 nM; under setting [2], 142 nM; under setting [3], 427 nM.
On to “GACAAUCUAUCUGAGGAUAUCAUGAAAAAAACAUGAGGAUCACCCAUGUGCAGGAAAACUGCAUAUGAGAAGGCAGAUAGAUUGC [salish99_SS2_r3_012] (Eterna round: R96, puzzle: Same State 2)”, for which, under setting [4], the “apparent KD of MS2 coat protein” value is 429 nM.
Take “GACAAUCUAUCUGAGGAUAUCAUGAAAAAAACAUGAGGAUCACCCAUGUGCAGGAAAACUGCAUAUGAGAAGGCAGAUAGAUUGC [salish99_SS2_r3_012] (puzzle: Same State 2)”: the “apparent KD of MS2 coat protein” value runs as follows: under setting [1], 34.1 nM; under setting [2], 443 nM; under setting [3], 781 nM.
The like results for “GACAAUCUAUCUGAGGAUAUCAUGAGAAUAACAUGAGGAUCACCCAUGUGCAGGAAAACUGCAUAUGAGAAGGCAGAUAGAUUGA [Mat - Same State 2 - Mod - D15] (puzzle: Same State 2)” were, in that order, 48.2 nM, 567 nM and 603 nM.
As to “GACCGCGAGGAAGGAUAUGGAGCCUUAUUGGCUCCAGAAGGUCCAUAAAGGACAUGAGGAUCACCCAUGUGGGUUGAAGCGGUC [Fiskers NG1ss - 38] (Eterna round: R96, puzzle: Same State NG 1)”, the “apparent KD of MS2 coat protein” value came out at 24.6 nM (input ligand: FMN 200 uM), 125 nM under setting [4] and 173 nM (input ligand: none).
Turning to “GAGAAGAGGGACAAGGAUAUGUCAGGAGAGACAUGAGGAUCACCCAUGUAGAGGUUGGAGGAGAGACAGAAGGUGUCGGGAGCGA [JR_SS2_Sub013] (puzzle: Same State 2)”, the “apparent KD of MS2 coat protein” value is, setting by setting: under setting [1], 86.8 nM; under setting [2], 73.7 nM; under setting [3], 109 nM.
“GAGAGACGAUUAGGAUAUCCGGUGAUAAUGAUAGGAGAAGGAAUUGACAUGAGGAUCACCCAUGUAGGAAUAAUCCAGAGAGAG [Parity 25 - Jieux - Same State NG 1] (Eterna round: R96, puzzle: Same State NG 1)”: the “apparent KD of MS2 coat protein” value turned out to be 51.5 nM (input ligand: FMN 200 uM), 28.5 nM under setting [4] and 48.8 nM (input ligand: none).
